The supplement of paper PMC10724198

How the values were obtained:
Saccharomyces cerevisiae [1] = assay: protein stability index of tFT-peptide fusion in wild type (PSI (0-1 scale)); higher = more stable (slower turnover); details: genetic background: wild type
Saccharomyces cerevisiae [2] = assay: protein stability index of tFT-peptide fusion in deletion strain of DOA10 (PSI (0-1 scale)); higher = more stable (slower turnover)
Experimental: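 MPS profiling in S. cerevisiae of two library types built from selected 12-aa C-degron peptides (IN1, IN2, LN1, LN3, VN2, R1-R5, W1-W3, Atg1 and Rpa12 C-termini): saturation mutagenesis libraries and C-terminal +1 capping libraries (13 aa). Each peptide is fused to the C-terminus of a sfGFP-mCherry timer, after a GGGS linker. Cells are FACS-sorted into 8 mCherry/sfGFP bins and sequenced. PSI runs from 0 (unstable) to 1 (stable), measured once in wild type and in the das1Δ or doa10Δ background.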
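For protein stability index of tFT-peptide fusion in deletion strain of DOA10 in this document: PSI per variant is the weighted mean of its sequencing read distribution over the sorted stability bins, counting only variants with over 10 reads summed across bins.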
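For protein stability index of tFT-peptide fusion in wild type in this document: PSI derived as read-weighted mean over the 8 sorting bins, only variants exceeding 10 total reads kept, mCherry placed adjacent to the peptide and sfGFP distal.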

Row | Sequence | protein stability index (Saccharomyces cerevisiae [1]) | protein stability index (Saccharomyces cerevisiae [2])
1 | RVTRLDAIYFWI | 0.523 | 0.561
2 | RVTRLDAIYKRI | 0.667 | 0.698
3 | RVTRLDAIYLRI | 0.302 | 0.704
4 | RVTRLDANYFRI | 0.689 | 0.716
5 | RVTRLDAYYFRI | 0.609 | 0.714
6 | RVTRLDLIYFRI | 0.224 | 0.654
7 | RVTRLDPIYFRI | 0.462 | 0.707
8 | RVTRLNAIYFRI | 0.229 | 0.496
9 | RVTRPDAIYFRI | 0.34 | 0.706
10 | RVVRLDAIYFRI | 0.399 | 0.65
11 | YSLRVLLPLYFR | 0.244 | 0.632
